B1: TNXB (parent)
chain: FSEIRETSAKVNWMPPPSRADSFK
B2: TMEM192 (parent)
chain: LWILHLLLECYIQYHHSKIRNRGY

Variants of: B1
Test: protein stability index of a GFP-peptide fusion (GPS, HEK-293T) (PSI 1-6); higher = more stable
Conditions: c terminus: a fixed tail appended
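Note: lentivirally expressed fusions sorted by FACS into six bins by GFP to DsRed ratio, PSI derived from sequencing read proportions per bin multiplied by bin number.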

Protein stability index, by site and new letter:
T7: F 1.78 | D 3.86 | Q 3.38 | M 2.97 | E 3.88 | Y 2.25 | K 3.97 | I 2.9 | H 3.1 | G 3.14 | A 3.23 | P 3.64 | S 3.22 | N 3.37 | L 2.69 | R 3.3 | V 2.97 | C 3.24
A9: C 2.38 | Q 3.72 | K 3 | E 4.04 | D 3.58 | I 2.83 | F 2.2 | N 2.95 | S 3.75 | H 3.36 | G 3.04 | P 3.33 | L 3.41 | W 2.46 | M 3.32 | V 2.35 | T 3.46 | Y 2.82 | R 3.29
I4: T 4.29 | Q 3.89 | L 3.42 | C 3.49 | V 3.56 | H 4.14 | E 4.3 | Y 2.94 | P 4.16 | D 3.99 | R 3 | M 3.92 | G 4.34 | W 1.9 | F 2.9 | S 4.01 | A 3.76 | N 3.51 | K 3.72
E6: V 2.84 | R 2.89 | A 3.31 | L 2.28 | Q 2.02 | W 2 | T 2.95 | C 2.65 | N 2.69 | K 3 | G 3.03 | M 2.34 | D 3.28 | H 3.38 | F 2.22 | S 2.64 | Y 2.87 | P 3.21 | I 1.82
S2: A 2.69 | H 2.21 | V 1.9 | F 2.65 | G 2.97 | D 4.12 | K 3.49 | P 3.65 | I 2.17 | Q 3.97 | Y 3 | T 2.67 | R 3.2 | E 3.98 | L 2.97 | W 2.37 | M 3.17 | N 4.04
K10: L 3.29 | R 3.67 | P 3.52 | N 2.94 | H 3.32 | E 3.76 | D 4.01 | A 3.92 | M 3.72 | T 3.96 | Q 4.12 | C 3 | I 3.06 | Y 2.72 | F 2.09 | W 1.66 | G 3.28 | S 3.76
F1: E 4.45 | I 3.46 | N 4.63 | W 3.6 | H 3.94 | L 4.02 | S 4.48 | M 4.15 | Y 3.98 | A 4.29 | T 4.07 | C 3.69 | G 4.22 | V 4.19 | K 4.4 | D 5.04 | P 4.76 | Q 4.48 | R 4.99
R5: G 3.22 | N 3.79 | V 3.52 | C 2.83 | E 4.23 | P 4.12 | Q 4.15 | K 3.74 | W 2.02 | F 2.86 | M 3.48 | Y 3.04 | H 3.79 | L 3.51 | I 3.4 | A 3.96 | D 3.97 | S 4.02 | T 3.87
S8: D 4.48 | G 3.15 | E 3.5 | Q 3.76 | F 2.51 | L 2.79 | K 2.95 | H 3.4 | Y 2.95 | W 2.1 | R 2.74 | T 3.63 | P 3.3 | I 2.73 | N 3.73 | C 3.95 | V 3.1 | A 3.5 | M 3.15
V11: L 3.29 | C 3.15 | A 3.77 | E 4 | F 2.97 | H 3.5 | D 4.12 | N 3.45 | M 3.17 | I 3.77 | Q 3.65 | K 4.2 | G 3.38 | R 3.02 | P 4.03
E3: D 3.37 | F 2.38 | Y 2.21 | G 2.34 | T 3.52 | C 1.77 | K 3.68 | R 3.13 | S 3.09 | P 2.52 | V 2.44 | Q 3.13 | H 2.62 | I 2.03 | A 2.4 | M 2.55 | L 2.47 | N 3.2 | W 2.6

Variants of: B2
Test: as above
Conditions: c terminus: a fixed tail appended

Protein stability index of substitutions, site by site:
N21: W 2.74 | S 2.7 | H 2.53 | V 2.93 | R 3.57 | F 1.97 | Y 2.6 | P 2.81 | L 2.11 | G 2.35 | K 1.98 | I 2.45 | A 2.86
I19: W 1.88 | R 1.96 | H 1.43 | V 2.01 | Q 1.55 | G 2.44 | N 1.88 | A 2.33 | D 1.73 | K 1.31 | P 2.04 | S 1.78 | F 3.16 | T 1.94 | L 2.14
H15: T 1.25 | R 2.33 | V 2.15 | Y 2.86 | S 2.72
K18: F 2.88 | D 3.53 | T 2.76 | Q 2.67 | N 3.08 | G 2.69 | M 3.16 | S 3.8 | P 2.32 | H 4.09 | R 4.17 | E 2.77
R22: L 2.44 | N 2.26 | P 1.67 | F 2.93 | W 3.32 | K 1.46 | C 4.22 | D 3.49 | I 2.69 | Q 3.54 | V 1.17 | A 2.18 | S 2.66 | Y 1.98
Y24: Q 1.57 | K 1.31 | N 2.44 | G 3.91 | T 1.12 | I 2.54 | C 1.79 | S 2.3 | V 2.69 | M 2.28 | A 2.18 | H 1.62 | P 2.52 | R 2.31
H16: D 1.47 | G 2.53 | E 1.91 | I 3.68 | C 2.41 | P 2.29 | F 2.36 | W 2.85 | L 1.85 | Q 2.43 | R 1.5 | S 1.05 | K 1.64 | N 1.3 | V 2.54
S17: V 1.59 | R 3.51 | Q 2.37 | P 2.26 | C 2.7 | W 2.15 | A 2.68 | N 2.6 | D 2.04 | G 2.28 | T 2.08 | H 2.86 | I 2.57 | M 1.11 | Y 4.45
G23: Y 1.89 | Q 2.51 | N 1.79 | K 2.54 | M 1.87 | A 2.48 | I 2.99 | F 1.38 | V 3.73 | C 2.04 | P 3.17 | W 1.77 | T 2.78 | R 1.78
R20: I 3.52 | L 1.89 | D 2.8 | P 3.47 | A 3.18 | H 2.63 | G 2.05 | Q 1.87 | S 2.63 | T 2.38 | Y 2.69 | W 2.45 | M 3.17 | K 1.97 | N 2.26

From the supplement of paper PMC10567573
